Our source for the Kd values is article PMC8608356.

pKd: −log10 of the molar value.

Assay in all cases: BLI
Common to all, as to details: biotinylated; BLI (BLItz): 20 mM Tris-HCl pH 7.4, 80 mM NaCl, 20 mM KCl, 1 mM DTT, room temperature; […] (Triton X-100, Tween-20)

Series [1] has as its system CCHFV N protein stalk domain (Crimean Congo Hemorrhagic fever virus strain 10200?).
In series [2] the test system is CCHFV nucleocapsid (N) protein, wild type (Crimean Congo Hemorrhagic fever virus strain 10200).
For series [3] the test system is unchanged. This is another data set of the same source.
Series [4] has as its system CCHFV N protein stalk domain (Crimean Congo Hemorrhagic fever virus strain 10200?). This is another data set of the same source.
Series [5] concerns CCHFV nucleocapsid (N) protein, wild type (Crimean Congo Hemorrhagic fever virus strain 10200). This is another data set of the same source.

Usually pKd stands for the negative decadic logarithm of the Kd, by convention in mol/L. Low values mean a high Kd, high ones a low Kd. For CCHFV S-segment mRNA 5' UTR, the pKd in series [1] was 7.44; in series [2], 7.43; in series [3], 7.17; in series [4], 7.27; in series [5], 7.27.
